Measurements: the supplement of paper PMC5998384

Key:
[1] = tested on: HeLa Kyoto; assay: thermal stability score vs G1/S (z-score of summed log2 fold changes over temperatures); higher = more thermally stable than in G1/S
[2] = tested on: HeLa Kyoto; assay: solubility change mitosis vs G1/S (difference of NP-40 vs SDS log2 ratios) (log2 ratio difference); higher = more soluble in mitosis
[3] = tested on: HeLa Kyoto; assay: melting temperature (median over replicates), in situ; higher = more thermally stable
[4] = tested on: HeLa Kyoto; assay: solubility in G1/S (NP-40 vs SDS abundance) (log2 ratio); higher = more soluble; conditions: cell cycle stage: G1/S
[5] = cell cycle stage: early G1 (4.5 h after nocodazole release)
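For melting temperature (median over replicates), in situ in this document: HeLa Kyoto cells synchronized by double thymidine or nocodazole block, proteins quantified by TMT10plex mass spectrometry, three independent biological replicates.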
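For solubility change mitosis vs G1/S (difference of NP-40 vs SDS log2 ratios) in this document: synchronized HeLa Kyoto cells (double thymidine block for G1/S, nocodazole release for mitosis), protein amounts in NP-40 versus SDS lysates quantified by mass spectrometry, three biological replicates.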
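For solubility in G1/S (NP-40 vs SDS abundance) in this document: HeLa Kyoto cells arrested at G1/S by double thymidine block, proteins quantified by TMT10plex mass spectrometry in mild NP-40 versus SDS extracts, three biological replicates.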
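For thermal stability score vs G1/S (z-score of summed log2 fold changes over temperatures) in this document: synchronized HeLa Kyoto cells, proteins quantified by TMT10plex mass spectrometry, three biological replicates, mitosis taken 0.5 h after nocodazole release, G1/S directly after double thymidine block.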

Sequence	thermal stability score [1, 5]	thermal stability score ([1]; cell cycle stage: mitosis)	solubility change mitosis (log2) [2]	melting temperature ([3]; cell cycle stage: G1/S)	melting temperature ([3]; cell cycle stage: mitosis)	solubility in G1/S (log2) [4]
MTCYRGFLLGSCCRVAGGRAAALRGPGAGGPAARPRLGGDGGGRRHLGQGQPRELAGCGSRADGGFRPSRVVVVAKTTRYEFEQQRYRYAELSEEDLKQLLALKGSSYSGLLERHHIHTKNVEHIIDSLRNEGIEVRLVKRREYDEETVRWADAVIAAGGDGTMLLAASKVLDRLKPVIGVNTDPERSEGHLCLPVRYTHSFPEALQKFYRGEFRWLWRQRIRLYLEGTGINPVPVDLHEQQLSLNQHNRALNIERAHDERSEASGPQLLPVRALNEVFIGESLSSRASYYEISVDDGPWEKQKSSGLNLCTGTGSKAWSFNINRVATQAVEDVLNIAKRQGNLSLPLNRELVEKVTNEYNESLLYSPEEPKILFSIREPIANRVFSSSRQRCFSSKVCVRSRCWDACMVVDGGTSFEFNDGAIASMMINKEDELRTVLLEQ [NADK2]	-0.37	2.77	-0.121	55.3 °C	55.5 °C	0.0487
MAEEQGRERDSVPKPSVLFLHPDLGVGGAERLVLDAALALQARGCSVKIWTAHYDPGHCFAESRELPVRCAGDWLPRGLGWGGRGAAVCAYVRMVFLALYVLFLADEEFDVVVCDQVSACIPVFRLARRRKKILFYCHFPDLLLTKRDSFLKRLYRAPIDWIEEYTTGMADCILVNSQFTAAVFKETFKSLSHIDPDVLYPSLNVTSFDSVVPEKLDDLVPKGKKFLLLSINRYERKKNLTLALEALVQLRGRLTSQDWERVHLIVAGGYDERVLENVEHYQELKKMVQQSDLGQYVTFLRSFSDKQKISLLHSCTCVLYTPSNEHFGIVPLEAMYMQCPVIAVNSGGPLESIDHSVTGFLCEPDPVHFSEAIEKFIREPSLKATMGLAGRARVKEKFSPEAFTEQLYRYVTKLLV [ALG2]	0.227	0.342	-0.229	51 °C	51.3 °C	-0.0813
MSSGAASGTGRGRPRGGGPGPGDPPPSETHKLVVVGGGGVGKSALTIQFIQSYFVSDYDPTIEDSYTKICSVDGIPARLDILDTAGQEEFGAMREQYMRAGHGFLLVFAINDRQSFNEVGKLFTQILRVKDRDDFPVVLVGNKADLESQRQVPRSEASAFGASHHVAYFEASAKLRLNVDEAFEQLVRAVRKYQEQELPPSPPSAPRKKGGGCPCVLL [RRAS]	0.904	-0.296	-0.0644	56.1 °C	56 °C	0.28
MADKVLKEKRKLFIRSMGEGTINGLLDELLQTRVLNKEEMEKVKRENATVMDKTRALIDSVIPKGAQACQICITYICEEDSYLAGTLGLSADQTSGNYLNMQDSQGVLSSFPAPQAVQDNPAMPTSSGSEGNVKLCSLEEAQRIWKQKSAEIYPIMDKSSRTRLALIICNEEFDSIPRRTGAEVDITGMTMLLQNLGYSVDVKKNLTASDMTTELEAFAHRPEHKTSDSTFLVFMSHGIREGICGKKHSEQVPDILQLNAIFNMLNTKNCPSLKDKPKVIIIQACRGDSPGVVWFKDSVGVSGNLSLPTTEEFEDDAIKKAHIEKDFIAFCSSTPDNVSWRHPTMGSVFIGRLIEHMQEYACSCDVEEIFRKVRFSFEQPDGRAQMPTTERVTLTRCFYLFPGH [CASP1]	0.996	1.73	-0.0916	51.5 °C	49.6 °C	0.0768
MSGFSPELIDYLEGKISFEEFERRREERKTREKKSLQEKGKLSAEENPDDSEVPSSSGINSTKSQDKDVNEGETSDGVRKSVHKVFASMLGENEDDEEEEEEEEEEEEEEETPEQPTAGDVFVLEMVLNRETKKMMKEKRPRSKLPRALRGLMGEANIRFARGEREEAILMCMEIIRQAPLAYEPFSTLAMIYEDQGDMEKSLQFELIAAHLNPSDTEEWVRLAEMSLEQDNIKQAIFCYTKALKYEPTNVRYLWERSSLYEQMGDHKMAMDGYRRILNLLSPSDGERFMQLARDMAKSYYEANDVTSAINIIDEAFSKHQGLVSMEDVNIAAELYISNKQYDKALEIITDFSGIVLEKKTSEEGTSEENKAPENVTCTIPDGVPIDITVKLMVCLVHLNILEPLNPLLTTLVEQNPEDMGDLYLDVAEAFLDVGEYNSALPLLSALVCSERYNLAVVWLRHAECLKALGYMERAAESYGKVVDLAPLHLDARISLSTLQQQLGQPEKALEALEPMYDPDTLAQDANAAQQELKLLLHRSTLLFSQGKMYGYVDTLLTMLAMLLKVAMNRAQVCLISSSKSGERHLYLIKVSRDKISDSNDQESANCDAKAIFAVLTSVLTKDDWWNLLLKAIYSLCDLSRFQEAELLVDSSLEYYSFYDDRQKRKELEYFGLSAAILDKNFRKAYNYIRIMVMENVNKPQLWNIFNQVTMHSQDVRHHRFCLRLMLKNPENHALCVLNGHNAFVSGSFKHALGQYVQAFRTHPDEPLYSFCIGLTFIHMASQKYVLRRHALIVQGFSFLNRYLSLRGPCQESFYNLGRGLHQLGLIHLAIHYYQKALELPPLVVEGIELDQLDLRRDIAYNLSLIYQSSGNTGMAQTLLYTYCSI [GTF3C3]	2.95	5.2	-0.0144	45.9 °C	49.1 °C	-0.231
MAGSVADSDAVVKLDDGHLNNSLSSPVQADVYFPRLIVPFCGHIKGGMRPGKKVLVMGIVDLNPESFAISLTCGDSEDPPADVAIELKAVFTDRQLLRNSCISGERGEEQSAIPYFPFIPDQPFRVEILCEHPRFRVFVDGHQLFDFYHRIQTLSAIDTIKINGDLQITKLG [LGALSL]	0.0977	-0.222	-0.16	53.3 °C	54 °C	0.36
MAMAPSPSLVQVYTSPAAVAVWEWQDGLGTWHPYSATVCSFIEQQFVQQKGQRFGLGSLAHSIPLGQADPSLAPYIIDLPSWTQFRQDTGTMRAVRRHLFPQHSAPGRGVVWEWLSDDGSWTAYEASVCDYLEQQVARGNQLVDLAPLGYNYTVNYTTHTQTNKTSSFCRSVRRQAGPPYPVTTIIAPPGHTGVACSCHQCLSGSRTGPVSGRYRHSMTNLPAYPVPQHPPHRTASVFGTHQAFAPYNKPSLSGARSAPRLNTTNAWGAAPPSLGSQPLYRSSLSHLGPQHLPPGSSTSGAVSASLPSGPSSSPGSVPATVPMQMPKPSRVQQALAGMTSVLMSAIGLPVCLSRAPQPTSPPASRLASKSHGSVKRLRKMSVKGATPKPEPEPEQVIKNYTEELKVPPDEDCIICMEKLSTASGYSDVTDSKAIGSLAVGHLTKCSHAFHLLCLLAMYCNGNKDGSLQCPSCKTIYGEKTGTQPQGKMEVLRFQMSLPGHEDCGTILIVYSIPHGIQGPEHPNPGKPFTARGFPRQCYLPDNAQGRKVLELLKVAWKRRLIFTVGTSSTTGETDTVVWNEIHHKTEMDRNITGHGYPDPNYLQNVLAELAAQGVTEDCLEQQ [DTX2]	0.67	0.769	-0.253	–	47.4 °C	0.0228
MAAACRSVKGLVAVITGGASGLGLATAERLVGQGASAVLLDLPNSGGEAQAKKLGNNCVFAPADVTSEKDVQTALALAKGKFGRVDVAVNCAGIAVASKTYNLKKGQTHTLEDFQRVLDVNLMGTFNVIRLVAGEMGQNEPDQGGQRGVIINTASVAAFEGQVGQAAYSASKGGIVGMTLPIARDLAPIGIRVMTIAPGLFGTPLLTSLPEKVCNFLASQVPFPSRLGDPAEYAHLVQAIIENPFLNGEVIRLDGAIRMQP [HSD17B10]	0.0147	-4.18	-0.041	54.5 °C	54.4 °C	0.254
MATLPAEPSAGPAAGGEAVAAAAATEEEEEEARQLLQTLQAAEGEAAAAAGAGAGAAAAGAEGPGSPGVPGSPPEAASEPPTGLRFSPEQVACVCEALLQAGHAGRLSRFLGALPPAERLRGSDPVLRARALVAFQRGEYAELYRLLESRPFPAAHHAFLQDLYLRARYHEAERARGRALGAVDKYRLRKKFPLPKTIWDGEETVYCFKERSRAALKACYRGNRYPTPDEKRRLATLTGLSLTQVSNWFKNRRQRDRTGAGGGAPCKSESDGNPTTEDESSRSPEDLERGAAPVSAEAAAQGSIFLAGTGPPAPCPASSSILVNGSFLAASGSPAVLLNGGPVIINGLALGEASSLGPLLLTGGGGAPPPQPSPQGASETKTSLVLDPQTGEVRLEEAQSEAPETKGAQVAAPGPALGEEVLGPLAQVVPGPPTAATFPLPPGPVPAVAAPQVVPLSPPPGYPTGLSPTSPLLNLPQVVPTSQVVTLPQAVGPLQLLAAGPGSPVKVAAAAGPANVHLINSGVGVTALQLPSATAPGNFLLANPVSGSPIVTGVALQQGKIILTATFPTSMLVSQVLPPAPGLALPLKPETAISVPEGGLPVAPSPALPEAHALGTLSAQQPPPAAATTSSTSLPFSPDSPGLLPNFPAPPPEGLMLSPAAVPVWSAGLELSAGTEGLLEAEKGLGTQAPHTVLRLPDPDPEGLLLGATAGGEVDEGLEAEAKVLTQLQSVPVEEPLEL [SIX5]	0.121	0.872	0.346	–	50.7 °C	-0.308
MDVERLQEALKDFEKRGKKEVCPVLDQFLCHVAKTGETMIQWSQFKGYFIFKLEKVMDDFRTSAPEPRGPPNPNVEYIPFDEMKERILKIVTGFNGIPFTIQRLCELLTDPRRNYTGTDKFLRGVEKNVMVVSCVYPSSEKNNSNSLNRMNGVMFPGNSPSYTERSNINGPGTPRPLNRPKVSLSAPMTTNGLPESTDSKEANLQQNEEKNHSDSSTSESEVSSVSPLKNKHPDEDAVEAEGHEVKRLRFDKEGEVRETASQTTSSEISSVMVGETEASSSSQDKDKDSRCTRQHCTEEDEEEDEEEEEESFMTSREMIPERKNQEKESDDALTVNEETSEENNQMEESDVSQAEKDLLHSEGSENEGPVSSSSSDCRETEELVGSNSSKTGEILSESSMENDDEATEVTDEPMEQD [PPP4R2]	-0.271	-0.968	-0.111	51.2 °C	51.7 °C	0.000183
MAVDITLLFRASVKTVKTRNKALGVAVGGGVDGSRDELFRRSPRPKGDFSSRAREVISHIGKLRDFLLEHRKDYINAYSHTMSEYGRMTDTERDQIDQDAQIFMRTCSEAIQQLRTEAHKEIHSQQVKEHRTAVLDFIEDYLKRVCKLYSEQRAIRVKRVVDKKRLSKLEPEPNTKTRESTSSEKVSQSPSKDSEENPATEERPEKILAETQPELGTWGDGKGEDELSPEEIQMFEQENQRLIGEMNSLFDEVRQIEGRVVEISRLQEIFTEKVLQQEAEIDSIHQLVVGATENIKEGNEDIREAIKNNAGFRVWILFFLVMCSFSLLFLDWYDS [STX18]	0.0563	-0.262	-0.0525	50.1 °C	50.8 °C	0.186
MPLFFRKRKPSEEARKRLEYQMCLAKEAGADDILDISKCELSEIPFGAFATCKVLQKKVLIVHTNHLTSLLPKSCSLLSLATIKVLDLHDNQLTALPDDLGQLTALQVLNVERNQLMQLPRSIGNLTQLQTLNVKDNKLKELPDTVGELRSLRTLNISGNEIQRLPQMLAHVRTLEMLSLDASAMVYPPREVCGAGTAAILQFLCKESGLEYYPPSQYLLPILEQDGIENSRDSPDGPTDRFSREELEWQNRFSDYEKRKEQKMLEKLEFERRLELGQREHTQLLQQSSSQKDEILQTVKEEQSRLEQGLSEHQRHLNAERQRLQEQLKQTEQNISSRIQKLLQDNQRQKKSSEILKSLENERIRMEQLMSITQEETESLRRRDVASAMQQMLTESCKNRLIQMAYESQRQNLVQQACSSMAEMDERFQQILSWQQMDQNKAISQILQESAMQKAAFEALQVKKDLMHRQIRSQIKLIETELLQLTQLELKRKSLDTESLQEMISEQRWALSSLLQQLLKEKQQREEELREILTELEAKSETRQENYWLIQYQRLLNQKPLSLKLQEEGMERQLVALLEELSAEHYLPIFAHHRLSLDLLSQMSPGDLAKVGVSEAGLQHEILRRVQELLDAARIQPELKPPMGEVVTPTAPQEPPESVRPSAPPAELEVQASECVVCLEREAQMIFLNCGHVCCCQQCCQPLRTCPLCRQDIAQRLRIYHSS [LRSAM1]	0.0283	0.57	-0.0589	51 °C	50.9 °C	0.149
